The record followed here is article PMC12660843, “Using phage display for rational engineering of a higher-affinity humanized 3’ phosphohistidine-specific antibody” (Communications Chemistry, 2025).

Test [1] has as its target 3-pTza peptide (Biotin-AminocaproicAcid-A.G.A.G.3-pTza.A.G.A.G). Put plainly: BLI; biotinylated peptide captured on streptavidin biosensors at 20 nM; IgG in solution at 20-200 nM; Octet HTX; 1x HBS-T, 1% BSA. On the technique in general: In BLI a coated tip is dipped into the sample, and binding shifts an interference pattern.
For test [2] the target is unchanged. Put plainly: BLI; Octet RED96e; biotinylated peptides captured on streptavidin biosensors at 20 nM; Fab in solution, 20-200 nM; 1x HBS-T, 1% BSA.
Test [3] deals with T1, 3-pHis peptide (Biotin-AminocaproicAcid-A.G.A.G.H.A.G.A.G phosphorylated by phosphoramidate).
T1 construct: His-peptide, phosphorylated on His5; the phosphoramidate reaction gives a mixture of non-phosphorylated, 1-pHis, 3-pHis and di-pHis peptide; also called Biotinylated ACLYana-3-pHis; ACLYana-pHis; source: synthetic peptide, phosphorylated with potassium phosphoramidate; not shown: biotin, N-terminal, kept
T1 peptide: {Biotin-Ahx}-AGAG[3‑pHis]AGAG
The description is as above.

Test [4] has as its target T2, 3-pTza peptide (Biotin-AminocaproicAcid-A.G.A.G.3-pTza.A.G.A.G).
T2 chain: {Biotin-Ahx}-AGAG[3‑pTza]AGAG
Description: BLI; biotinylated peptide captured on streptavidin biosensors at 20 nM; IgG in solution at 20-200 nM; Octet HTX; 1x HBS-T, 1% BSA. As to conditions: both partners purified.

The target in test [5] is T1, 3-pHis peptide …. The test is described as above. As to conditions: both partners purified.
In test [6] the target is T3, 3-pHis form of ACLY (120 kDa) (Homo sapiens (HEK293T, endogenous), UniProt P53396, 3-phosphohistidine (site not stated)).
T3 construct: ACLY (ATP-citrate lyase), 120 kDa band on the immunoblot; source: endogenous, HEK293T lysate
Description: immunoblot; HEK293T whole cell lysate, 30 µg, alkaline 12% SDS-PAGE and alkaline blotting at 4 °C; 0.5 µg/mL IgG as primary antibody, 1 h at room temperature; HRP secondary antibody. As to conditions: one partner purified.

Test [7] addresses T4, 3-pHis form of the a-subunit of SCS (30 kDa) (Homo sapiens (HEK293T, endogenous), UniProt P53597, 3-phosphohistidine (site not stated)).
T4 construct: alpha subunit of SCS (succinyl-CoA synthetase), 30 kDa band on the immunoblot; source: endogenous, HEK293T lysate
Described as above. As to conditions: one partner purified.

*1 amine or outer side, *2 acyl side, *3 side chain or, on linkers, in order; H or OH if unused. Where no end group is shown, it is not given here. [ ]: non-standard residue; d: D form. The star is where a group is joined. 3‑pTza = 3-phosphotriazolyl alanine (also given as 3-phosphoryl-triazolylalanine); 3‑pHis = 3-phosphohistidine, O=C([C@H](Cc1cn(P(=O)(O)O)cn1)N[*:1])[*:2]; Biotin = O=C1N[C@H]2[C@H](CS[C@H]2CCCCC(=O)*)N1; Ahx = NCCCCCC(=O)O

T4 sequence (P53597 41-346): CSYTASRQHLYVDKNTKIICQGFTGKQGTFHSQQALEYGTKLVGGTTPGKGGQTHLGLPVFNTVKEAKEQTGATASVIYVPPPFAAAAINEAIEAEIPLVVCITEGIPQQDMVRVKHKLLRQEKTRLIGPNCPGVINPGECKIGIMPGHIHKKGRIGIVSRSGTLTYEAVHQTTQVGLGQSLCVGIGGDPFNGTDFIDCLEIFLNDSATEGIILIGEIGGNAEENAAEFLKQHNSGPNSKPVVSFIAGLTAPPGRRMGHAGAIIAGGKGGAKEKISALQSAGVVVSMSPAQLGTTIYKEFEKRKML
T3 sequence (P53396 whole entry): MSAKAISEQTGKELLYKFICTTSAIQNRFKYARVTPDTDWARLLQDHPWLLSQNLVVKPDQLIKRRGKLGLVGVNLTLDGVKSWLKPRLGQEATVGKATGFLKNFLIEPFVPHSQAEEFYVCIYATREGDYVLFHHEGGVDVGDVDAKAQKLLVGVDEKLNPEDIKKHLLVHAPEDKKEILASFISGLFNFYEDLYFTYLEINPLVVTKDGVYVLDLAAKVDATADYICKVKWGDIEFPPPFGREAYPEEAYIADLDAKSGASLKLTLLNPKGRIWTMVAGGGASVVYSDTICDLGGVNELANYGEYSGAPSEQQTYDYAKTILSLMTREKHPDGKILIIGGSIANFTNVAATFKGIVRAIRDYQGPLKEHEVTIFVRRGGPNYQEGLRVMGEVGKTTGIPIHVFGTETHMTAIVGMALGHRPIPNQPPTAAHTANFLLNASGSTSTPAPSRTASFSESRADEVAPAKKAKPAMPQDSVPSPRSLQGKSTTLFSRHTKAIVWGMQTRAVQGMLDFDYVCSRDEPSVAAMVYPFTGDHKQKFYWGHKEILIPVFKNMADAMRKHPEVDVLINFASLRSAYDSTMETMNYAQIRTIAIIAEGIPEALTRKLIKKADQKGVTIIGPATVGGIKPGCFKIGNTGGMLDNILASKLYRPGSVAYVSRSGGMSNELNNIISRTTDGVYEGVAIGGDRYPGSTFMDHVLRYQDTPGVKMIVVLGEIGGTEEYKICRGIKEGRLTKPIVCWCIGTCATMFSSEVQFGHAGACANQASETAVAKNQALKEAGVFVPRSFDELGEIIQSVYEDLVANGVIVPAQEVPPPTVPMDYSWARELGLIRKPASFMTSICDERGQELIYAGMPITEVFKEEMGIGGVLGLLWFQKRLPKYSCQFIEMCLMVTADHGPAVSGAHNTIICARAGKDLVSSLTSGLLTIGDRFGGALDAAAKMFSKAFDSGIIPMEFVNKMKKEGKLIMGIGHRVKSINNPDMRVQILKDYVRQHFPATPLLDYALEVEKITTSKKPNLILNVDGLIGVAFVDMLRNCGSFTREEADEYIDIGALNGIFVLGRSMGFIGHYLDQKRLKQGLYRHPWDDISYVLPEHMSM

B1: hSC44.1 IgG (antibody, V domains shown)
VH: EVQLVESGGGLVQPGGSLRLSCTASGFSIDSYGFSWVRQAPGKGLEHIGYLTAGGRAFYASWAKSRSTITRNTNENTVTLKMNSLRAEDTAVYYCAKLGTGSPIAIWGQGTLVTVSS
VL: DIQMTQSPSSLSASVGDRVTITCRASQSVWRNKNVAWYQQKPGKAPKRLIYAIASLYSGVPSRFSGSGSGTDFTLTISSLQPEDFATYYCVGHYGSENDAYYAFGQGTKVEIK
Turning to B1, in test [1], the dissociation constant (Kd) (as a rule, the concentration at which binding is half-saturated) was found to be 0.588 nM; the koff (in general, the first-order rate constant of dissociation) was found to be 8.32e-05 s⁻¹; the association rate constant (kon) – broadly, the second-order rate constant of association – amounted to 141000 M⁻¹ s⁻¹.

B2: hSC44.22 IgG (antibody, V domains shown)
VH: EVQLVESGGGLVQPGGSLRLSCTASGFSIDSYGFSWVRQAPGKGLEHIGYLTAGGRAFYASWAKSRSTITRNTNENTVTLKMNSLRAEDTAVYYCAKLGTGTPVAIWG
VL: DIQMTQSPSSLSASVGDRVTITCRASQSVWRNKNVAWYQQKPGKAPKRLIYAIASLYSGVPSRFSGSGSGTDFTLTISSLQPEDFATYYCVGHYGSENDAYYAFGQGTKVEIK
Regarding B2, in test [1], the Kd is 0.495 nM, the koff came to 4.49e-05 s⁻¹ and the kon was found to be 90600 M⁻¹ s⁻¹.

B3: hSC44.3 IgG (antibody, V domains shown)
VH: EVQLVESGGGLVQPGGSLRLSCTASGFSIDSYGFSWVRQAPGKGLEHIGYLTAGGRAFYASWAKSRSTITRNTNENTVTLKMNSLRAEDTAVYYCAKIGSGSPVAIWG
VL: DIQMTQSPSSLSASVGDRVTITCRASQSVWRNKNVAWYQQKPGKAPKRLIYAIASLYSGVPSRFSGSGSGTDFTLTISSLQPEDFATYYCVGHYGSENDAYYAFGQGTKVEIK
In test [1], B3 returned a Kd of 0.352 nM, a koff of 1.43e-05 s⁻¹ and an on-rate (kon) of 40700 M⁻¹ s⁻¹.

B4: hSC44.20.N32Y^L Fab (Fab, V domains shown)
VH: EVQLVESGGGLVQPGGSLRLSCTASGFSIDSYGFSWVRQAPGKGLEHIGYLTAGGRAFYASWAKSRSTITRNTNENTVTLKMNSLRAEDTAVYYCAKLGTGSRFAIWGQGTLVTVSS
VL: DIQMTQSPSSLSASVGDRVTITCRASQSVWRNKYVAWYQQKPGKAPKRLIYAIASLYSGVPSRFSGSGSGTDFTLTISSLQPEDFATYYCVGHYGSENDAYYAFGQGTKVEIK
Turning to B4, in test [2], the equilibrium dissociation constant (Kd) was 0.83 nM, the dissociation rate constant (koff) is 0.000186 s⁻¹ and the association rate constant (kon) amounted to 224000 M⁻¹ s⁻¹. In test [3], this molecule came in with an equilibrium dissociation constant (Kd) of 5.11 nM, a dissociation rate constant (koff) of 0.00066 s⁻¹ and an on-rate constant (kon) of 129000 M⁻¹ s⁻¹.

B5: hSC44.20 Fab (Fab, V domains shown)
VH: EVQLVESGGGLVQPGGSLRLSCTASGFSIDSYGFSWVRQAPGKGLEHIGYLTAGGRAFYASWAKSRSTITRNTNENTVTLKMNSLRAEDTAVYYCAKLGTGSRFAIWGQGTLVTVSS
VL: DIQMTQSPSSLSASVGDRVTITCRASQSVWRNKNVAWYQQKPGKAPKRLIYAIASLYSGVPSRFSGSGSGTDFTLTISSLQPEDFATYYCVGHYGSENDAYYAFGQGTKVEIK
Regarding B5, in test [2], the Kd was 0.421 nM, the koff came to 0.000103 s⁻¹ and the kon was found to be 245000 M⁻¹ s⁻¹. In test [3], the Kd stood at 17.5 nM, the koff amounted to 0.0042 s⁻¹ and the kon was determined as 240000 M⁻¹ s⁻¹.

B6: hSC44.31 IgG (antibody, V domains shown)
VH: EVQLVESGGGLVQPGGSLRLSCTASGFSIDSYGFSWVRQAPGKGLEHIGYLTAGGRAFYASWAKSRSTITRNTNENTVTLKMNSLRAEDTAVYYCAKLGTGTPFAIWGQGTLVTVSS
VL: DIQMTQSPSSLSASVGDRVTITCRASQSVWRNKYVAWYQQKPGKAPKRLIYAIASLYSGVPSRFSGSGSGTDFTLTISSLQPEDFATYYCVGHYGSENDAYYAFGQGTKVEIK
In test [1], B6 returned an equilibrium dissociation constant (Kd) of 2.71 nM, a dissociation rate constant (koff) of 3.98e-05 s⁻¹ and a kon of 14700 M⁻¹ s⁻¹.

B7: hSC44.8 IgG (antibody, V domains shown)
VH: EVQLVESGGGLVQPGGSLRLSCTASGFSIDSYGFSWVRQAPGKGLEHIGYLTAGGRAFYASWAKSRSTITRNTNENTVTLKMNSLRAEDTAVYYCAKIGTGSRVAIWG
VL: DIQMTQSPSSLSASVGDRVTITCRASQSVWRNKNVAWYQQKPGKAPKRLIYAIASLYSGVPSRFSGSGSGTDFTLTISSLQPEDFATYYCVGHYGSENDAYYAFGQGTKVEIK
In the case of B7, in test [1], the Kd is 0.185 nM, the dissociation rate constant (koff) was 6.66e-05 s⁻¹ and the kon is 359000 M⁻¹ s⁻¹.

B8: hSC44.28 IgG (antibody, V domains shown)
VH: EVQLVESGGGLVQPGGSLRLSCTASGFSIDSYGFSWVRQAPGKGLEHIGYLTAGGRAFYASWAKSRSTITRNTNENTVTLKMNSLRAEDTAVYYCAKLGTGSPLAIWG
VL: DIQMTQSPSSLSASVGDRVTITCRASQSVWRNKFVAWYQQKPGKAPKRLIYAIASLYSGVPSRFSGSGSGTDFTLTISSLQPEDFATYYCVGHYGSENDAYYAFGQGTKVEIK
In test [1], B8 had an equilibrium dissociation constant (Kd) of 1.21 nM, a koff of 3e-05 s⁻¹ and an on-rate (kon) of 24900 M⁻¹ s⁻¹.

B9: hSC44.13 IgG (antibody, V domains shown)
VH: EVQLVESGGGLVQPGGSLRLSCTASGFSIDSYGFSWVRQAPGKGLEHIGYLTAGGRAFYASWAKSRSTITRNTNENTVTLKMNSLRAEDTAVYYCAKLGTGSPVAIWG
VL: DIQMTQSPSSLSASVGDRVTITCRASQSVWRNKNVAWYQQKPGKAPKRLIYAIASLYSGVPSRFSGSGSGTDFTLTISSLQPEDFATYYCVGHYGSENDAYYAFGQGTKVEIK
On to B9, for which, in test [1], the Kd turned out to be 0.405 nM, the dissociation rate constant (koff) is 7.37e-05 s⁻¹ and the kon was 182000 M⁻¹ s⁻¹.

B10: hSC44.20.N32F^L Fab (Fab, V domains shown)
VH: EVQLVESGGGLVQPGGSLRLSCTASGFSIDSYGFSWVRQAPGKGLEHIGYLTAGGRAFYASWAKSRSTITRNTNENTVTLKMNSLRAEDTAVYYCAKLGTGSRFAIWGQGTLVTVSS
VL: DIQMTQSPSSLSASVGDRVTITCRASQSVWRNKFVAWYQQKPGKAPKRLIYAIASLYSGVPSRFSGSGSGTDFTLTISSLQPEDFATYYCVGHYGSENDAYYAFGQGTKVEIK
Regarding B10, in test [2], the dissociation constant (Kd) was found to be 0.892 nM, the koff is 0.000177 s⁻¹ and the kon stood at 199000 M⁻¹ s⁻¹. In test [3], this molecule came in with an equilibrium dissociation constant (Kd) of 6.63 nM, a koff of 0.000697 s⁻¹ and a kon of 105000 M⁻¹ s⁻¹.

B11: hSC44.20.N32Y^L IgG (antibody, V domains shown)
VH: EVQLVESGGGLVQPGGSLRLSCTASGFSIDSYGFSWVRQAPGKGLEHIGYLTAGGRAFYASWAKSRSTITRNTNENTVTLKMNSLRAEDTAVYYCAKLGTGSRFAIWGQGTLVTVSS
VL: DIQLTQSPSSLSASVGDRVTITCRASQSVWRNKYVAWYQQKPGKAPKRLIYAIASLYSGVPSRFSGSGSGTDFTLTISSLQPEDFATYYCVGHYGSENDAYYAFGQGTKVEIK
notes: human IgG1, kappa light chain
In test [4], B11 returned an off-rate (koff) of under 1e-07 s⁻¹ and a kon of 35100 M⁻¹ s⁻¹. In test [5], this molecule yielded a koff of 2.61e-05 s⁻¹ and an on-rate constant (kon) of 8880 M⁻¹ s⁻¹.

B12: hSC44.20.N32F^L IgG (antibody, V domains shown)
VH: EVQLVESGGGLVQPGGSLRLSCTASGFSIDSYGFSWVRQAPGKGLEHIGYLTAGGRAFYASWAKSRSTITRNTNENTVTLKMNSLRAEDTAVYYCAKLGTGSRFAIWGQGTLVTVSS
VL: DIQLTQSPSSLSASVGDRVTITCRASQSVWRNKFVAWYQQKPGKAPKRLIYAIASLYSGVPSRFSGSGSGTDFTLTISSLQPEDFATYYCVGHYGSENDAYYAFGQGTKVEIK
notes: human IgG1, kappa light chain
On to B12, for which, in test [4], binding was put at a Kd of 1.54 nM, the dissociation rate constant (koff) came to 5.73e-05 s⁻¹ and the kon amounted to 37300 M⁻¹ s⁻¹. Also, in test [5], the Kd was 1.68 nM, the koff came out at 1.64e-05 s⁻¹ and the kon was found to be 13900 M⁻¹ s⁻¹.

B13: rSC44 Fab (Fab, V domains shown)
VH: QSVKESGRGLVQPGGSLTLTCTASGFSIDSYGFSWVRQAPGKGLEHIGYLTAGGRAFYASWAKSRSTITRNTNENTVTLKMTSLTAADTATYFCAKLGSGNPVAIWGPGTLVTVSS
VL: QVLTQTPSFTSAAVGGTVTINCQSSQSVWRNKNLAWYQQKPGQPPKRLIYAIATLDSGVPSRFSGSGSGTQFTLTISDVQCDDAATYYCVGHYGSENDAYYAFGGGTEVVVK
For the molecule B13, in test [2], the Kd was 0.668 nM, the koff is 0.000135 s⁻¹ and the kon was found to be 203000 M⁻¹ s⁻¹. In test [3], this molecule had a dissociation constant (Kd) of 48.5 nM, an off-rate constant (koff) of 0.00591 s⁻¹ and an association rate constant (kon) of 122000 M⁻¹ s⁻¹.

B14: rSC44 IgG (antibody, V domains shown)
VH: QSVKESGRGLVQPGGSLTLTCTASGFSIDSYGFSWVRQAPGKGLEHIGYLTAGGRAFYASWAKSRSTITRNTNENTVTLKMTSLTAADTATYFCAKLGSGNPVAIWGPGTLVTVSS
VL: QVLTQTPSFTSAAVGGTVTINCQSSQSVWRNKNLAWYQQKPGQPPKRLIYAIATLDSGVPSRFSGSGSGTQFTLTISDVQCDDAATYYCVGHYGSENDAYYAFGGGTEVVVK
notes: rabbit SC44-8 IgG heavy chain; rabbit IgG constant region; as the light chain of m9; Rabbit IgG; also called SC44-8; rSC44-8; copies: 2 + 2
As for B14, the binding result in test [6] and in test [7] was “binds” throughout.
